Measurements from the DeepSol protein solubility set.

Assay: soluble on expression in E. coli; label from the status in PepcDB or PDB records

| Sequence | soluble on expression in E. coli |
| --- | --- |
| MLPANEIKGVLAFLREAERLKSVIRSGYTSTGRPESTAEHTWRLCLMAMLLADGLGDIDVARLLKICIVHDLGEALHGDVPAVAQVEGDDRAARERADIETLTQSLDDKRRAELLGLWHDYETGASPEGRLAKGLDKLETILQHTQGLNPADFDYAFNLDYGARHTAVHPLVSAIRAELDNDTRARMALQQASGAPH | not soluble |
| GPGSMGRNKKSKATAHAQACSDGEREEEHGAVPTTTLPARAEGCEEENGASAAAADGAQGTPDHHSGRCSERGRDSDDDAPKTKKEYRGNRLKKLEVQRKKGKGKGANEDDKAEEAAREGDAHEEPLVVTRQRAVEVLYCPICTFPAEMCEFSGIVEKCRPWLLEHAADLADAEERGRKRRILTEKDRLEAMLEGRGVKKALERIVVLEVEKRTGRRMITSVFGMDLFGFNLKDVSRDWRKRFSCGAGVRAAEEGKHQDCIDIQGNVVDQLADMLITKYKIPKESVYLMEGKKKVPYPY | not soluble |
| KFGGINETYLPPNNTVRTAQASFDENFPHFRTEPIKLVITGATNQQLVDVYQQANKVEGLTDRFKPSSATKDGTTVLSAGIENREDNAKVVEQLRAIDAPEGVSVYIGGIPAMEVESIEALFDKLP | not soluble |
| MAHHHHHHMGGAVSFCLQKLNKVSEVEYRPYKEYASYGEQSVPVKGSDDSGRSMIYRMSNTSEEELKRLRDEWYAGGSCLSVLERLCKERGKRTCLAYRKLKTIEKNETTTSDGRKKVLETYVFEPERRTMSYTLFWQNIVDFGRGLHEIGLTKGNTVSIYEETRWQWLCTMYSCWSQGLLVSTVYANLGEDALQYALDEAQCNAIVCNGSKVKDVLAMFKVIEAPKGTKVIYLDELPPSVTSEEYDLYAWSDVVARGKKSEASCRIPSGAESKDELALIMYTSGTTGNPKGVMHTHGSLYCGCMTISQRINDLLGKMKEQEWYCSYLPLAHIMELAVTSVLMMRGVIIGYGSPRTLLDTFAKPCGDLTTYRPLVFVAVPRVFDSMKRAVEEKLPPPGSLKRKIFDKAYEARLKALKKGCDTPFFNKRVFANARKVMGGRVYAMLSGGGPLSESTQEFINVVFGMVIQGWGMTESVACGGIQRTGNLEYNCVGQVLKTAEVQLLDTDEFKHTDQPEPRGEVLLRGPFLFKGYYKQPEQTREALDNDGWLHTGDVASVTPSGTMRIVGRVKALAKNANGEYLALEMLESIYGTNEITVPNGVCVLVHPHRTYIAIIAVTNEKLVKAFMKKHKIENGGFPAILDDAEFLRVVLQSLQKTARDANRCSFEVVQGVKLLNEEWTPENGVLTAAMKLKRRVISENYADFINKLFEKQ | not soluble |
| MSLKKLVIFDLDGTLLNTIADLAHSTNYALNKLGYPTHEIEKYNFMVGNGIDKLFERALPEGEKSKENVLRVRKEFVPYYDIHNADDSRPYPGIPELLSYLQDAGIQITVASNKYQAATQKLIDHYFPEIHFTAVFGQREGIKVKPDPTVVFDILEVAKVTKEEVLYVGDSGVDMQTAANAGVTVCGVTWGFRPRAELEEFSPQYIVDTAEEIKRLILEGHHHHHH | soluble |
| MGSDKIHHHHHHMAFIAGEIAAVLDLPEVLRRRLFVAALLHDVGALSPEEKMDLYASKVEECDTHCIRGARLLHQVDGFGEEGRVLRLHHATLRDGSLADVDEDTARLAQIVHLSDLVDRALDRGRYVLHQADTMCDMARDLARCDFEVSIVRAFLEVARREDFWLQMVLPTLGQHLEAISPCRGEMLDACGVEVHAGLVQGMVDFRSSFTAAHSAGVAEAADALGGYCDLSPERRVVLRIAGLLHDLGKMAVPTSILEKPSGLTKAEFAFMRQHTFHTYRLLRGVDGLGGMAAWAAYHHEKLDGSGYPFHLEGRALDPQARIIGVADIFTAMAEDRPYRKGQGREGVLRVLRDECTTGRVDGELVETVAESYPDMVGRVLDAQHAARSRFSDVLQPAGEKGAKADQST | not soluble |
| STSELDIFVGNTTLIDEDVYRLWLDGYSVTDAVALRVRSGILEQTGATAAVLQSDTMDHYRTFHMLERLLHAPPKLLHQLIFQIPPSRQALLIERYYAFDEAFVREVLGKKLSKGTKKDLDDISTKTGITLKSCRRQFDNFKRVFKVVEEMRGSLVDNIQQHFLLSDRLARDYAAIVFFANNRFETGKKKLQYLSFGDFAFCAELMIQNWTLGAVDSQMDDMDMDLDKEFLQDLKELKVLVADKDLLDLHKSLVCTALRGKLGVFSEMEANFKNLSRGLVNVAAKLTHNKDVRDLFVDLVEKFVEPCRSDHWPLSDVRFFLNQYSASVHSLDGFRHQALWDRYMGTLRGCLLRLYHD | soluble |
| MKIALIGASGYVGSALLKEALSRGHHVTALVSRPERIAAQANLAAAKVDVQDSAQLAEQLKGFDAVLSAFSGHAQAEQFDYFVKGIRSIIAAAKAAQAPRLLVVGGAGSLEVAPGVQLVDTPEFPEQWKASALGAREALNLLRAETELNWTLLSPSAMLQPGQRTGQFRLGKDQLLVDAEGNSHISVEDYAVAMIDELEKGLEHHHHHH | not soluble |
| MKHEEMNQRFNHLENEITELNKKLSALVSSEDENKRRDEHYAAIYDYCHKVAHETFMKFLQEKFLPAALSEKEAAYLRPEYVITVNSAGEEEHKSDFIASAPDKDQEPHRPFRVSCEEGEFVVYENGKPVRASHHHCLKIINLAIRCLKDENTRVMKRIGRCMGYLQVAAEIEALASGADMDAAVREALLRDFNTPPLRKSLMTGSSRG | not soluble |
| MAVAANKRSVMTLFSSASDMYSHQVRIVLAEKGVSFEVELVDENNLPAELIELNPYKTVPTLVDRELALYDSKIIMEYLDERFPHPPLMPVYPVARGNSRLMIYRIERNWYSLAEKVVNGSPEVAENARNKLRNDLLTLGPVFAEFEYFMSEEFSLIDCYLAPLLWRLPVLGIDLIGPGSKELKVYMNRVFERDSFLASLTEAEREMRLAR | not soluble |
| MQEYSIDITLTHPDDVLALFGSNERHLKLIEAHLGVIVHARTERVQVIGEDEEAVELARLTIKALLVLVGRGMVVNTSDVVTALSMAESHQIDQFMALYEEEIIKDNYGKAIRVKTLGQKTYVDSVKRHDVVFGVGPAGTGKTFLAVTLAVTALKRGQVKRIILTRPAVEAGESLGFLPGDLKEKVDPYLRPVYDALYHILGKEQTTRLMERDVIEIAPLAYMRGRTLDDAFVILDEAQNTTIMQMKMFLTRLGFNSKMIVNGDTSQIDLPRNVKSGLIDATQKLQGIKQIDFVYFSAKDVVRHPVVADIIKAYETSSEEMKDLLKPKASDVEADYQPGLTKYPVIGQEHLEHHHHHH | not soluble |
| MGSDKIHHHHHHMSHSLTSVFQKIDSLKPQFFSRLTKAIQIPAVSSDESLRSKVFDKAKFISEQLSQSGFHDIKMVDLGIQPPPISTPNLSLPPVILSRFGSDPSKKTVLVYGHYDVQPAQLEDGWDTEPFKLVIDEAKGIMKGRGVTDDTGPLLSWINVVDAFKASGQEFPVNLVTCFEGMEESGSLKLDELIKKEANGYFKGVDAVCISDNYWLGTKKPVLTYGLRGCNYYQTIIEGPSADLHSGIFGGVVAEPMIDLMQVLGSLVDSKGKILIDGIDEMVAPLTEKEKALYKDIEFSVEELNAATGSKTSLYDKKEDILMHRWRYPSLSIHGVEGAFSAQGAKTVIPAKVFGKFSIRTVPDMDSEKLTSLVQKHCDAKFKSLNSPNKCRTELIHDGAYWVSDPFNAQFTAAKKATKLVYGVDPDFTREGGSIPITLTFQDALNTSVLLLPMGRGDDGAHSINEKLDISNFVGGMKTMAAYLQYYSESPEN | not soluble |
| MSLPRLDARLKLVAAEIRGKIHADIGSDHGHLLAALLSADRIERGIAVENKLQPYRNSSATLERLNAEVRLGEGMDVIEENEIDSLSICGMGGQSIVRILSEHPNRLPKQLVLQPNQAIASVRQWARDNGYWLTDEKCTGTKRRFEVLVFSRFGPPHDPVYQKLNEVGLDESMGLMFGPWFLLRKDERLLQRLAEEQRYLQSKQNLTQTSRARVETIRRLLSSDHFLSREGHHHHHH | soluble |
| MGSDKIHHHHHHMINLNGNSSSSRQVTFITHPSIQSKAFASYLSETLMAPVVLQNINKPLAQRLAKDSVILFDIAVSNKKLNGVWRDIIRLQADNPRLLIINSAQKYELYEMAQWPALYGVFRHDDDESRLIEGVKAVLNGEQTAELSVMHPAMYAADHASTPVENSPLTERECEILNELRCGATNLDIARALFISENTVRTHLYNVFRKLSVKNRTQAVSWANEHLRH | not soluble |
| MSLKALDEPPYLTVGTDVSAKYRGAFCEAKIKTAKRLVKVKVTFRHDSSTVEVQDDHIKGPMKVGAIVEVKNLDGAYQEAVINKLTDASWYTVVFDDGDEKTLRRSSLCLKGERHFAESETLDQLPLTNPEHFGTPVIGKKTNRGRRSNHIPEEESSSSSSDEDEDDRKQIDELLGKVVCVDYISLDKKKALWFPALVVCPDCSDEIAVKKDNIMVRSFKDGKFTSVPRKDVHEITSDTAPKPDAVLKQAFEQALEFHKSRTIPANWKTELKEDSSSSEAEEEEEEEDDEKEKEDNSSEEEEEIEPFPEERENFLQQLYKFMEDRGTPINKRPVLGYRNLNLFKLFRLVHKLGGFDNIESGAVWKQVYQDLGIPVLNSAAGYNVKCAYKKYLYGFEEYCRSANIEFQMALPEKVVNKQCKECENVKEIKVKEENETEIKEIKMEEERNIIPREGHHHHHH | soluble |
| MSLRTEFGRLQEHPIVDFKRGKEVTIYLNGKPVKAYEGETVAAALYAAGVRVFSRSFRWHRPRGFFCAIGKCSACMMEVDGIPNVRTCKVYVRDGMQVRTQSGMPDAEKDVFSILDDVIDKVFPHGSHYTKFTTSKKAREFMVKRMRKFTGFGNPPKAVFQGRAELEEIETDVLVIGGGPGGMSAAINAGKYGAKVLLVDENPFLGGQLVKQTHRFFGSAKERAGTRGIKIAGILEEELNSIENVEVRRETRVFGIYNGEAGAYQRLNDDEGKLLRIKAKKIVVATGAYERTLIFENNDLPGVYGAGGVQTLMNVYGIKPGNMGLIVGSGNVGLILTYQLMQAGVNVAAIVEAMPRIGGYFVHAAKVRRLGVPIYVRHTILKAIGRKSVEGAVIAQLDDRWQPIPGTEKEIKCDFICVAVGLSPTHELLYQAGCEMKFVPELGGIVPLRTRFNETSVKGLYVAGDVAGIEEATAAIMEGRIAGIHAAVTLGYGGEEAKKELDEAVKEIEEFRAGPFGERIVCGLEKCTLESEGHHHHHH | not soluble |
| MSLGKRIFVFDTTLRDGEQVPGCQLNTEEKIIVAKALDELGVDVIEAGFPVSSPGDFNSVVEITKAVTRPTICALTRAKEADINIAGEALRFAKRSRIHTGIGSSDIHIEHKLRSTRENILEMAVAAVKQAKKVVHEVEFFCEDAGRADQAFLARMVEAVIEAGADVVNIPDTTGYMLPWQYGERIKYLMDNVSNIDKAILSAHCHNDLGLATANSLAALQNGARQVECTINGIGERAGNTALEEVVMAMECHKETLGLETGINHKKLVPISHLVSTLMRMQVQSNKAIVGRNAFAHSSGIHQDGFLKHRETYEIIDPAAVGADSSSIILTARSGRAALNHRLATIGYMLSKDQLDQAYTQFLDMADHLRKVEDENLHELMRGKVYAKEGHHHHHH | soluble |
| MRWRADFLSAWAEALLRKAGADEPSAKAVAWALVEADLRGVGSHGLLRLPVYVRRLEAGLVNPSPTLPLEERGPVALLDGEHGFGPRVALKAVEAAQSLARRHGLGAVGVRRSTHFGMAGLYAEKLAREGFVAWVTTNAEPDVVPFGGREKALGTNPLAFAAPAPQGILVADLATSESAMGKVFLAREKGERIPPSWGVDREGSPTDDPHRVYALRPLGGPKGYALALLVEVLSGVLTGAGVAHGIGRMYDEWDRPQDVGHFLLALDPGRFVGKEAFLERMGALWQALKATPPAPGHEEVFLPGELEARRRERALAEGMALPERVVAELKALGERYGVPWRDDA | soluble |
| MGTKQYKDGTYYAEADDFDESGWKDTVTIEVKNGKIVSVDWNAINKDGGDDKDTLSRNGGYKMVEYGGAQAEWHEQAEKVEAYLVEKQDPTDIKYKDNDGHTDAISGATIKVKKFFDLAQKALKDAEKLEHHHHHH | soluble |
